Experimental data: publication PMC10786891, “Massively parallel profiling of RNA-targeting CRISPR-Cas13d”
Residue numbers refer to the chain shown, from its start. Names may count otherwise.

Target: T1, EsCas13d, nuclease-dead (Eubacterium siraeum, UniProt B0MS50, R295A;H300A;R849A;H854A)
T1 sequence: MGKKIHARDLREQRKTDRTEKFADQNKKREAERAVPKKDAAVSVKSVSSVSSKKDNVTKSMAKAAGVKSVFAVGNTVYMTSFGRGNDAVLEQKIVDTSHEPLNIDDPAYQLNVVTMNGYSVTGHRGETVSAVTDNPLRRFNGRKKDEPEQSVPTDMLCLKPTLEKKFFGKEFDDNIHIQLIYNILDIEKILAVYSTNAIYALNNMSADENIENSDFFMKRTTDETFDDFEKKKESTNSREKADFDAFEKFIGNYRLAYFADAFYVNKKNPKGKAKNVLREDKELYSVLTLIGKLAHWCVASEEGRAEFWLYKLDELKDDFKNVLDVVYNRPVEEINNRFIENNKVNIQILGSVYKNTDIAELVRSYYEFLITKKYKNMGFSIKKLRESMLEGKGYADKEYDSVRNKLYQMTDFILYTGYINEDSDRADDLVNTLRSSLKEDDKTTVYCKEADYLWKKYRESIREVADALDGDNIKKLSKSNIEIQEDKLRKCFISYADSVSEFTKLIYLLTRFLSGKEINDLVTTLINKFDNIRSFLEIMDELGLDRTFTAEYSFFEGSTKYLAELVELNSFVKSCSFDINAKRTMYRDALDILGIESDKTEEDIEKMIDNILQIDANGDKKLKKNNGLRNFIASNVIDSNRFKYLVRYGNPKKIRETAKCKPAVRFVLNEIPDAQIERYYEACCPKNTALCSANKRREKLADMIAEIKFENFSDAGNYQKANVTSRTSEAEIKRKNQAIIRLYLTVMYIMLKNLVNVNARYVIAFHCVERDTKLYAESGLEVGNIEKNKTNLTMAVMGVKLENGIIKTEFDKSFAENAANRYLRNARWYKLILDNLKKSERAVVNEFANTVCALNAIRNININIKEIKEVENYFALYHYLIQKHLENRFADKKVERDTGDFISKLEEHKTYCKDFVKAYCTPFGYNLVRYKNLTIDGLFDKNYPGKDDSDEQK
Experiment: crRNA (strand 1, pre-loaded); Mg2+; 40 mM Tris-HCl pH 7.5, 150 mM NaCl, 6 mM MgCl2, 1 mM DTT, 0.1% Tween-20, 0.2 mg/ml BSA; 25 C; 10 min per concentration, then washed
Details: tags: His6-TwinStrep-SUMO cleaved; N-terminal SNAP kept (SNAP-Surface 488); label: 3' end held by stalled T7 RNA polymerase

B1: target 1 U10C,G12C (mixed)
RNA 1: CACCCGUGCAAAAAUGCAGGGGUCUAAAACUGAGCGGAUAACCUCUCUAUGG
RNA 2: GGGAAUGGAUCCACAUCUACGAAUUCGUACCAUAGAGAGCUCAUCCGCUCACCGAGAUCGGAAGAGCACACGU
- Kd: 71 ± 27 nM

B2: target 1 A14U,A16C (mixed)
RNA 1: B1 RNA 1
RNA 2: B1 RNA 2 with A36C, A38U, C40G, C42U
- Kd: 100 ± 40 nM

B3: target 1 G17C,A18G (mixed)
RNA 1: B1 RNA 1
RNA 2: B1 RNA 2 with A34G, G35C, C40G, C42U
- Kd: ~90 nM

B4: target 2 MT 5'PFS CUU 3'PFS CAA (mixed)
RNA 1: CACCCGUGCAAAAUUGCAGGGGUCUAAAACCUUCUCCAAAUUGUUUCAUCCU
RNA 2: GGGAAUGGAUCCACAUCUACGAAUUCCUUAGGAUGAAACAAUUUGGAGAAGCAAAGAUCGGAAGAGCACACGU
- Kd: 2.9 ± 0.4 nM

B5: target 2 MT 5'PFS CAA 3'PFS CUC (mixed)
RNA 1: B4 RNA 1
RNA 2: B4 RNA 2 with U28A, U29A, A53U, A54C
- Kd: 5.3 ± 2.1 nM

B6: target 2 MT 5'PFS UUC 3'PFS CAC (mixed)
RNA 1: B4 RNA 1
RNA 2: B4 RNA 2 with C27U, U29C, A54C
- Kd: 13 ± 4 nM

B7: target 2 MT 5'PFS UUC 3'PFS CAG (mixed)
RNA 1: B4 RNA 1
RNA 2: B4 RNA 2 with C27U, U29C, A54G
- Kd: 6.5 ± 1.4 nM

B8: target 2 MT 5'PFS AUA 3'PFS UUA (mixed)
RNA 1: B4 RNA 1
RNA 2: B4 RNA 2 with C27A, U29A, C52U, A53U
- Kd: 10.7 ± 1.7 nM

B9: target 2 MT 5'PFS CUU 3'PFS CAG (mixed)
RNA 1: B4 RNA 1
RNA 2: B4 RNA 2 with A54G
- Kd: 3.75 ± 0.3 nM

B10: target 2 MT 5'PFS ACU 3'PFS UUA (mixed)
RNA 1: B4 RNA 1
RNA 2: B4 RNA 2 with C27A, U28C, C52U, A53U
- Kd: 9.4 ± 2.2 nM

B11: target 2 MT 5'PFS UCA 3'PFS UAG (mixed)
RNA 1: B4 RNA 1
RNA 2: B4 RNA 2 with C27U, U28C, U29A, C52U, A54G
- Kd: 3.9 ± 0.5 nM

B12: target 2 MT 5'PFS AGC 3'PFS UCG (mixed)
RNA 1: B4 RNA 1
RNA 2: B4 RNA 2 with C27A, U28G, U29C, C52U, A53C, A54G
- Kd: 14.3 ± 3.2 nM

B13: target 2 MT 5'PFS AAA 3'PFS ACA (mixed)
RNA 1: B4 RNA 1
RNA 2: B4 RNA 2 with C27A, U28A, U29A, C52A, A53C
- Kd: 7.8 ± 2.2 nM

B14: target 2 MT 5'PFS CAG 3'PFS ACG (mixed)
RNA 1: B4 RNA 1
RNA 2: B4 RNA 2 with U28A, U29G, C52A, A53C, A54G
- Kd: 5.8 ± 2.8 nM

B15: target 2 MT 5'PFS AGC 3'PFS UCU (mixed)
RNA 1: B4 RNA 1
RNA 2: B4 RNA 2 with C27A, U28G, U29C, C52U, A53C, A54U
- Kd: 16.1 ± 2.8 nM

B16: target 2 MT 5'PFS UUC 3'PFS CAA (mixed)
RNA 1: B4 RNA 1
RNA 2: B4 RNA 2 with C27U, U29C
- Kd: 30 ± 6 nM

B17: target 2 MT 5'PFS ACU 3'PFS UUG (mixed)
RNA 1: B4 RNA 1
RNA 2: B4 RNA 2 with C27A, U28C, C52U, A53U, A54G
- Kd: 7 ± 1 nM

B18: target 2 MT 5'PFS ACU 3'PFS UUC (mixed)
RNA 1: B4 RNA 1
RNA 2: B4 RNA 2 with C27A, U28C, C52U, A53U, A54C
- Kd: 7.1 ± 2 nM

B19: target 2 MT 5'PFS AGC 3'PFS UCC (mixed)
RNA 1: B4 RNA 1
RNA 2: B4 RNA 2 with C27A, U28G, U29C, C52U, A53C, A54C
- Kd: 23 ± 4 nM

B20: target 2 MT 5'PFS UGA 3'PFS AAU (mixed)
RNA 1: B4 RNA 1
RNA 2: B4 RNA 2 with C27U, U28G, U29A, C52A, A54U
- Kd: 6.2 ± 0.8 nM

B21: target 2 MT 5'PFS CUU 3'PFS CAU (mixed)
RNA 1: B4 RNA 1
RNA 2: B4 RNA 2 with A54U
- Kd: 4.1 ± 0.6 nM

B22: target 2 MT 5'PFS GGC 3'PFS CUG (mixed)
RNA 1: B4 RNA 1
RNA 2: B4 RNA 2 with C27G, U28G, U29C, A53U, A54G
- Kd: 12.9 ± 1.3 nM

B23: target 2 MT 5'PFS AUA 3'PFS UUC (mixed)
RNA 1: B4 RNA 1
RNA 2: B4 RNA 2 with C27A, U29A, C52U, A53U, A54C
- Kd: 13.4 ± 2.4 nM

B24: target 2 MT 5'PFS UCA 3'PFS UAU (mixed)
RNA 1: B4 RNA 1
RNA 2: B4 RNA 2 with C27U, U28C, U29A, C52U, A54U
- Kd: 5.1 ± 0.7 nM

B25: target 2 MT 5'PFS ACU 3'PFS UUU (mixed)
RNA 1: B4 RNA 1
RNA 2: B4 RNA 2 with C27A, U28C, C52U, A53U, A54U
- Kd: 6.4 ± 0.8 nM

B26: target 2 MT 5'PFS UCA 3'PFS UAC (mixed)
RNA 1: B4 RNA 1
RNA 2: B4 RNA 2 with C27U, U28C, U29A, C52U, A54C
- Kd: 5.7 ± 0.9 nM

B27: target 2 MT 5'PFS AGC 3'PFS UCA (mixed)
RNA 1: B4 RNA 1
RNA 2: B4 RNA 2 with C27A, U28G, U29C, C52U, A53C
- Kd: 27 ± 10 nM

B28: target 2 MT 5'PFS GGC 3'PFS CUA (mixed)
RNA 1: B4 RNA 1
RNA 2: B4 RNA 2 with C27G, U28G, U29C, A53U
- Kd: 12 ± 1.9 nM

B29: target 2 MT 5'PFS CUC 3'PFS UGA (mixed)
RNA 1: B4 RNA 1
RNA 2: B4 RNA 2 with U29C, C52U, A53G
- Kd: 1.66 ± 0.33 nM

B30: target 2 MT 5'PFS CAG 3'PFS UUC (mixed)
RNA 1: B4 RNA 1
RNA 2: B4 RNA 2 with U28A, U29G, C52U, A53U, A54C
- Kd: 19 ± 8 nM

B31: target 2 MT 5'PFS UGA 3'PFS AAC (mixed)
RNA 1: B4 RNA 1
RNA 2: B4 RNA 2 with C27U, U28G, U29A, C52A, A54C
- Kd: 10.1 ± 2.4 nM

B32: target 2 MT 5'PFS CUU 3'PFS CAC (mixed)
RNA 1: B4 RNA 1
RNA 2: B4 RNA 2 with A54C
- Kd: 3.41 ± 0.28 nM

B33: target 2 MT 5'PFS CUC 3'PFS UGU (mixed)
RNA 1: B4 RNA 1
RNA 2: B4 RNA 2 with U29C, C52U, A53G, A54U
- Kd: 2.23 ± 0.19 nM

B34: target 2 MT 5'PFS CAA 3'PFS CUA (mixed)
RNA 1: B4 RNA 1
RNA 2: B4 RNA 2 with U28A, U29A, A53U
- Kd: ~5 nM

B35: target 2 MT 5'PFS CUC 3'PFS UGC (mixed)
RNA 1: B4 RNA 1
RNA 2: B4 RNA 2 with U29C, C52U, A53G, A54C
- Kd: 1.98 ± 0.26 nM

B36: target 2 MT 5'PFS UGA 3'PFS AAG (mixed)
RNA 1: B4 RNA 1
RNA 2: B4 RNA 2 with C27U, U28G, U29A, C52A, A54G
- Kd: 7.4 ± 0.9 nM

B37: target 2 MT 5'PFS UGA 3'PFS AAA (mixed)
RNA 1: B4 RNA 1
RNA 2: B4 RNA 2 with C27U, U28G, U29A, C52A
- Kd: 9 ± 2.9 nM

B38: target 2 MT 5'PFS GGC 3'PFS CUC (mixed)
RNA 1: B4 RNA 1
RNA 2: B4 RNA 2 with C27G, U28G, U29C, A53U, A54C
- Kd: 13.2 ± 1.2 nM
